From the supplement of paper PMC10598134
± gives the standard deviation.

Experiment: collision cross section of modified peptide (TIMS, N2, iRT-aligned); higher = larger / more extended gas-phase ion
Outline: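 Synthetic peptide pools (~100 fmol/µL in 2% acetonitrile/0.1% formic acid, iRT standard spiked 1:40) were separated on a 120-min nanoflow C18 gradient at 60 °C. They were analysed on a timsTOF Pro/HT (dda-PASEF, nitrogen, ~2.4 mbar) and identified with MaxQuant. 1/K0 was calibrated with three reference ions and aligned run-wise to the median iRT peptide deviation. Collision cross section came from the Mason-Schamp equation, averaging 1–3 technical replicates of the most abundant feature per charge state.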

[1] = charge state: 2, modification: Succinyl
[2] = charge state: 3, modification: Succinyl
[3] = charge state: 3, modification: GlyGly (K)
[4] = charge state: 2, modification: Phospho (Y)
[5] = charge state: 3, modification: hydroxyisobutyryl
[6] = charge state: 2, modification: Biotin
[7] = charge state: 3, modification: Biotin
[8] = charge state: 2, modification: Citrullination (R)
[9] = charge state: 3, modification: Citrullination (R)
[10] = charge state: 2, modification: hydroxyisobutyryl
[11] = charge state: 2, modification: Acetyl (K)
[12] = charge state: 3, modification: Acetyl (K)
[13] = charge state: 2, modification: Glutarylation
[14] = charge state: 3, modification: Glutarylation
[15] = charge state: 2, modification: Malonyl
[16] = charge state: 2, modification: Methyl (K)
[17] = charge state: 3, modification: Methyl (K)
[18] = charge state: 2, modification: Trimethyl (K)
[19] = charge state: 3, modification: Trimethyl (K)
[20] = charge state: 2, modification: GlyGly (K)
[21] = charge state: 2, modification: Hydroxyproline
[22] = charge state: 2, modification: Nitro (Y)
[23] = charge state: 3, modification: Methyl (R)
[24] = charge state: 3, modification: Dimethyl (K)
[25] = charge state: 2, modification: Dimethyl (K)
[26] = charge state: 2, modification: Crotonyl
[27] = charge state: 2, modification: HexNAc (ST)

## ANLEKAQAELVGTADEATR [_ANLEK(Succinyl)AQAELVGTADEATR_]
[1]
  collision cross section: 479.08 ± 0.78 Å²
[2]
  collision cross section: 580.29 ± 0.37 Å²

## DSINFLDHINGKK [_DSINFLDHINGK(GlyGly (K))K_]
[3]
  collision cross section: 464.41 ± 1.6 Å²

## YILIPASQQPK [_Y(Phospho (Y))ILIPASQQPK_]
[4]
  collision cross section: 405.41 ± 0.64 Å²

## HELQANCYEEVKDR [_HELQANCYEEVK(hydroxyisobutyryl)DR_]
[5]
  collision cross section: 504.98 ± 2.9 Å²

## SSFAYKDQNENR [_SSFAYK(Biotin)DQNENR_]
[6]
  collision cross section: 421.15 ± 1.9 Å²
[7]
  collision cross section: 490.01 ± 0.34 Å²

## PGTPAGYGRGR [_PGTPAGYGR(Citrullination (R))GR_]
[8]
  collision cross section: 345.81 ± 4.8 Å²
[9]
  collision cross section: 431.14 Å²

## STGLELETPSLVPVKK [_STGLELETPSLVPVK(hydroxyisobutyryl)K_]
[10]
  collision cross section: 440.07 ± 0.82 Å²
[5]
  collision cross section: 511.71 ± 25 Å²

## DDSFLGKLGGTLAR [_DDSFLGK(Butyryl)LGGTLAR_]
Charge state: 2, modification: Butyryl
  collision cross section: 417.41 ± 0.39 Å²
Charge state: 3, modification: Butyryl
  collision cross section: 492.3 ± 2.4 Å²

## LDHLAEKFR [_LDHLAEK(Succinyl)FR_]
[1]
  collision cross section: 369.4 ± 0.74 Å²
[2]
  collision cross section: 444.17 ± 3.4 Å²

## IVFSGNLFQHQEDSKK [_IVFSGNLFQHQEDSK(Acetyl (K))K_]
[11]
  collision cross section: 495.37 ± 4.2 Å²
[12]
  collision cross section: 536.07 ± 1.1 Å²

## DTGEKLTVAENEAETK [_DTGEK(Gluratylation)LTVAENEAETK_]
[13]
  collision cross section: 451.19 ± 1.1 Å²
[14]
  collision cross section: 527.35 Å²

## KYEEIDNAPEER [_K(Succinyl)YEEIDNAPEER_]
[1]
  collision cross section: 412.18 ± 0.54 Å²
[2]
  collision cross section: 490.15 Å²

## GEVQVSDKER [_GEVQVSDK(Malonyl)ER_]
[15]
  collision cross section: 362.93 ± 1.2 Å²

## DYSSGFGGKYGVQADR [_DYSSGFGGK(Gluratylation)YGVQADR_]
[13]
  collision cross section: 441.26 ± 0.95 Å²

## ASDTSSETVFGKR [_ASDTSSETVFGK(Methyl (K))R_]
[16]
  collision cross section: 406.57 ± 1.3 Å²
[17]
  collision cross section: 477.14 ± 3.8 Å²

## LLIVSTTPYSEKDTK [_LLIVSTTPYSEK(Methyl (K))DTK_]
[16]
  collision cross section: 465.27 ± 2.3 Å²
[17]
  collision cross section: 508.6 ± 2 Å²

## DYSSGFGGKYGVQADR [_DYSSGFGGK(Trimethyl (K))YGVQADR_]
[18]
  collision cross section: 437.78 ± 0.016 Å²
[19]
  collision cross section: 486.86 ± 1.8 Å²

## PSVGSQSNQAGQGKR [_PSVGSQSNQAGQGK(Malonyl)R_]
[15]
  collision cross section: 406.87 ± 1.8 Å²
Charge state: 3, modification: Malonyl
  collision cross section: 446.38 Å²

## ISALQGKLSK [_ISALQGK(GlyGly (K))LSK_]
[20]
  collision cross section: 369.61 ± 1 Å²
[3]
  collision cross section: 430.51 ± 2 Å²

## VSPASSVDSNIPSSQGYKK [_VSPASSVDSNIPSSQGYK(Methyl (K))K_]
[16]
  collision cross section: 486.85 ± 1.2 Å²
[17]
  collision cross section: 544.11 ± 0.42 Å²

## GFCFITYTDEEPVKK [_GFCFITYTDEEPVK(Acetyl (K))K_]
[11]
  collision cross section: 451.75 ± 3.1 Å²

## GERGVPGER [_GERGVP(Hydroxyproline)GER_]
[21]
  collision cross section: 328.27 ± 0.79 Å²
Charge state: 3, modification: Hydroxyproline
  collision cross section: 402.04 Å²

## GYLGPEQLPDCLK [_GY(Nitro (Y))LGPEQLPDCLK_]
[22]
  collision cross section: 396.71 ± 0.18 Å²

## GFGRGGAESHTFK [_GFGR(Methyl (R))GGAESHTFK_]
[23]
  collision cross section: 473.29 ± 3 Å²

## IHNAENIQPGEQKYEYK [_IHNAENIQPGEQK(Acetyl (K))YEYK_]
[11]
  collision cross section: 481.31 Å²
[12]
  collision cross section: 525.52 ± 2.1 Å²

## DSRGGGGNFGPGPGSNFR [_DSR(Citrullination (R))GGGGNFGPGPGSNFR_]
[9]
  collision cross section: 470.03 ± 5.1 Å²

## GNPGVGTQGPR [_GNP(Hydroxyproline)GVGTQGPR_]
[21]
  collision cross section: 327.91 ± 0.79 Å²

## YLHDESGLNR [_Y(Nitro (Y))LHDESGLNR_]
[22]
  collision cross section: 366.66 ± 0.46 Å²
Charge state: 3, modification: Nitro (Y)
  collision cross section: 429.41 ± 1.1 Å²

## DESFLGKLGGTLAR [_DESFLGK(Succinyl)LGGTLAR_]
[1]
  collision cross section: 416.2 ± 0.36 Å²
[2]
  collision cross section: 490.1 ± 2.1 Å²

## IQQELQTAKK [_IQQELQTAK(Trimethyl (K))K_]
[18]
  collision cross section: 374.97 ± 0.61 Å²
[19]
  collision cross section: 436.54 ± 2.4 Å²

## ALASIDSKLNQAK [_ALASIDSK(Trimethyl (K))LNQAK_]
[18]
  collision cross section: 417.47 ± 0.6 Å²
[19]
  collision cross section: 444.8 ± 1.8 Å²

## TVQGPPGEPGR [_TVQGPPGEP(Hydroxyproline)GR_]
[21]
  collision cross section: 345.67 ± 0.89 Å²

## SPDEAYAIAKK [_SPDEAYAIAK(Gluratylation)K_]
[13]
  collision cross section: 380.21 ± 0.73 Å²
[14]
  collision cross section: 455.46 ± 1.2 Å²

## FDDTNPEKEEAK [_FDDTNPEK(Methyl (K))EEAK_]
[16]
  collision cross section: 400.43 ± 1.8 Å²
[17]
  collision cross section: 498.56 ± 1.5 Å²

## VLDSGAPIKIPVGPETLGR [_VLDSGAPIK(Dimethyl (K))IPVGPETLGR_]
[24]
  collision cross section: 506.24 ± 0.56 Å²

## ITESVAETAQTIKK [_ITESVAETAQTIK(Dimethyl (K))K_]
[25]
  collision cross section: 449.13 ± 1.2 Å²
[24]
  collision cross section: 499.12 ± 1.6 Å²

## VNALKNLQVK [_VNALK(Dimethyl (K))NLQVK_]
[25]
  collision cross section: 371.74 ± 0.57 Å²
[24]
  collision cross section: 421.1 Å²

## VLTANSNPSSPSAAKR [_VLTANSNPSSPSAAK(Biotin)R_]
[6]
  collision cross section: 443.24 ± 0.79 Å²
[7]
  collision cross section: 547.09 ± 3.1 Å²

## LEKTIDDLEEK [_LEK(Propionyl)TIDDLEEK_]
Charge state: 2, modification: Propionyl
  collision cross section: 406.15 ± 0.38 Å²

## LPEYPQVDDLLLR [_LPEY(Nitro (Y))PQVDDLLLR_]
[22]
  collision cross section: 424.61 ± 1.1 Å²

## VDATADYICK [_VDATADY(Phospho (Y))ICK_]
[4]
  collision cross section: 366.93 ± 0.064 Å²

## DVNAAIAAIKTK [_DVNAAIAAIK(Trimethyl (K))TK_]
[18]
  collision cross section: 402.42 ± 1.1 Å²
[19]
  collision cross section: 465.71 ± 2.2 Å²

## VGEFSGANKEK [_VGEFSGANK(Biotin)EK_]
[6]
  collision cross section: 386.08 Å²

## GETASKLQSEISR [_GETASK(Acetyl (K))LQSEISR_]
[11]
  collision cross section: 386.09 ± 2 Å²
[12]
  collision cross section: 464.45 ± 0.086 Å²

## TPSSFRQPFTPTSR [_TPSSFR(Methyl (R))QPFTPTSR_]
[23]
  collision cross section: 481.78 ± 1.9 Å²

## INNFSADIKDSK [_INNFSADIK(Crotonyl)DSK_]
[26]
  collision cross section: 405.9 ± 0.28 Å²
Charge state: 3, modification: Crotonyl
  collision cross section: 458.84 ± 1.6 Å²

## GERGPPGPPGR [_GERGPP(Hydroxyproline)GPPGR_]
[21]
  collision cross section: 333.05 Å²

## RLPTTGYLVYR [_R(Methyl (R))LPTTGYLVYR_]
Charge state: 2, modification: Methyl (R)
  collision cross section: 391.98 Å²
[23]
  collision cross section: 476.6 ± 3.2 Å²

## ISALQGKLSK [_ISALQGK(Gluratylation)LSK_]
[13]
  collision cross section: 358.52 ± 0.083 Å²

## LTSLNVKYNNDK [_LTSLNVK(Trimethyl (K))YNNDK_]
[18]
  collision cross section: 406.52 ± 0.61 Å²
[19]
  collision cross section: 461.22 ± 1.8 Å²

## YGRGQLNYPLPDFSK [_YGR(Citrullination (R))GQLNYPLPDFSK_]
[8]
  collision cross section: 439.93 ± 0.95 Å²
[9]
  collision cross section: 492.79 Å²

## ASAISIKLGSSK [_ASAISIK(GlyGly (K))LGSSK_]
[20]
  collision cross section: 390.99 ± 1 Å²

## PANEKATDDYHYEK [_PANEK(Acetyl (K))ATDDYHYEK_]
[11]
  collision cross section: 436.41 ± 2.5 Å²
[12]
  collision cross section: 502.57 ± 2 Å²

## PSVSTKLISK [_PSVSTK(Methyl (K))LISK_]
[16]
  collision cross section: 356.57 ± 0.35 Å²
[17]
  collision cross section: 424.71 ± 5.3 Å²

## LLEQKTQESQK [_LLEQK(GlyGly (K))TQESQK_]
[20]
  collision cross section: 410.36 ± 1.9 Å²
[3]
  collision cross section: 452.18 ± 1.1 Å²

## ASCLYGQLPK [_ASCLY(Nitro (Y))GQLPK_]
[22]
  collision cross section: 365.43 ± 2.1 Å²

## SYISSQTNDTHK [_S(HexNAc (ST))YISSQTNDTHK_]
[27]
  collision cross section: 405.45 ± 0.67 Å²

## LEKTIDDLEEK [_LEK(Malonyl)TIDDLEEK_]
[15]
  collision cross section: 405.85 ± 0.59 Å²

## LAEEENKAK [_LAEEENK(Crotonyl)AK_]
[26]
  collision cross section: 351.41 ± 1.1 Å²

## SAGSVESPSVSSTHR [_SAGSVESPSVS(HexNAc (ST))STHR_]
[27]
  collision cross section: 412.88 ± 0.14 Å²

## GFALVGVGSEASSKK [_GFALVGVGSEASSK(Gluratylation)K_]
[13]
  collision cross section: 416.74 ± 0.49 Å²
[14]
  collision cross section: 499.26 ± 3.6 Å²

## SKHLQEQLNELK [_SK(hydroxyisobutyryl)HLQEQLNELK_]
[10]
  collision cross section: 425.52 ± 0.81 Å²
[5]
  collision cross section: 492.58 ± 2.1 Å²

## IVSGKDYNVTANSK [_IVSGK(Succinyl)DYNVTANSK_]
[1]
  collision cross section: 411.09 ± 0.54 Å²

## THLGEALAPLSK [_THLGEALAPLS(HexNAc (ST))K_]
[27]
  collision cross section: 397.68 ± 0.13 Å²
Charge state: 3, modification: HexNAc (ST)
  collision cross section: 475.05 ± 25 Å²

## LQAAYAGDKADDIQK [_LQAAYAGDK(Methyl (K))ADDIQK_]
[16]
  collision cross section: 430.05 ± 1.4 Å²
[17]
  collision cross section: 477.97 ± 2.6 Å²
